From patent US20230399394A1 (SUNSHINE GUOJIAN PHARMACEUTICAL SHANGHAI, published 2023)

What was measured:
Pep13 = target: T1, Pep13 (human, N-terminal biotin); assay: ELISA, biotinylated peptide on streptavidin plate, antibody 10 µg/mL, well 2
T1 construct: Synthetic 20-mer of human IL-33
T1 peptide: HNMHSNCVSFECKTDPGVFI
Method: (§1) To determine the binding activity of antibody to each polypeptide fragment, the ELISA plate was pre-coated by biotin-avidin (SA) which was diluted in coating solution (50 mM carbonate coating buffer, pH 9.6) to 2 μg/ml at 4° C. overnight. The plate was washed with PBST for 3 times, and then blocked with 2% BSA prepared in PBS at room temperature for 2 h with 200 μL/well. The plate was washed once with PBST, and 864F3 and 874F7 with final concentrations of 10 μg/mL were added at 100 μL/well, respectively, and the plate was incubated at room temperature for 1 h. The plate was washed with PBST for 3 times, and the goat anti-mouse IgG labeled by HRP was added and placed at 37° C. for 30 min. After washing the plate with PBST for 3 times, the plate was patted on the absorbent paper to remove residual droplets as far as possible. 100 μl TMB developing solution was added to each well, and the plate was placed at room temperature (20±5° C.) for 5 minutes away from light; 50 μl 2M H₂SO₄ terminating solution was added to each well to terminate the substrate reaction. OD values were read at 450 nm on the microplate reader to analyze the binding ability of the antibody to each polypeptide fragment. The experimental results are shown in […]

Pep4 = target: T2, Pep4 (human, N-terminal biotin); assay: as above
T2 construct: Synthetic 20-mer of human IL-33
T2 peptide: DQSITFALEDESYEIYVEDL
Method: as §1

Pep6 = target: T3, Pep6 (human, N-terminal biotin); assay: as above
T3 construct: Synthetic 20-mer of human IL-33
T3 peptide: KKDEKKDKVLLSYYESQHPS
Method: as §1

Pep16 = target: T4, Pep16 (human, N-terminal biotin); assay: as above
T4 construct: Synthetic 20-mer of human IL-33
T4 peptide: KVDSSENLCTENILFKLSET
Method: as §1

Pep2 = target: T5, Pep2 (human, N-terminal biotin); assay: as above
T5 construct: Synthetic 20-mer of human IL-33
T5 peptide: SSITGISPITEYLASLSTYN
Method: as §1

Pep3 = target: T6, Pep3 (human, N-terminal biotin); assay: as above
T6 construct: Synthetic 20-mer of human IL-33
T6 peptide: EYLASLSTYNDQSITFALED
Method: as §1

Pep5 = target: T7, Pep5 (human, N-terminal biotin); assay: as above
T7 construct: Synthetic 20-mer of human IL-33
T7 peptide: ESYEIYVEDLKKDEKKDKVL
Method: as §1

Pep11 = target: T8, Pep11 (human, N-terminal biotin); assay: as above
T8 construct: Synthetic 20-mer of human IL-33
T8 peptide: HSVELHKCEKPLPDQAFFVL
Method: as §1

Pep10 = target: T9, Pep10 (human, N-terminal biotin); assay: as above
T9 construct: Synthetic 20-mer of human IL-33
T9 peptide: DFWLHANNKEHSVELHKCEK
Method: as §1

Pep8 = target: T10, Pep8 (human, N-terminal biotin); assay: as above
T10 construct: Synthetic 20-mer of human IL-33
T10 peptide: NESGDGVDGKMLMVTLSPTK
Method: as §1

Pep15 = target: T11, Pep15 (human, N-terminal biotin); assay: as above
T11 construct: Synthetic 20-mer of human IL-33
T11 peptide: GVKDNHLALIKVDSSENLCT
Method: as §1

Pep14 = target: T12, Pep14 (human, N-terminal biotin); assay: as above
T12 construct: Synthetic 20-mer of human IL-33
T12 peptide: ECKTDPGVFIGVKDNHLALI
Method: as §1

Pep7 = target: T13, Pep7 (human, N-terminal biotin); assay: as above
T13 construct: Synthetic 20-mer of human IL-33
T13 peptide: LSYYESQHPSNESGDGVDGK
Method: as §1

[1] = target: T14, IL-33 mutant protein V67A (human, UniProt O95760 112-270); assay: ELISA as Example 9; row V67A against WT-3
T14 construct: Prokaryotic expression
T14 chain: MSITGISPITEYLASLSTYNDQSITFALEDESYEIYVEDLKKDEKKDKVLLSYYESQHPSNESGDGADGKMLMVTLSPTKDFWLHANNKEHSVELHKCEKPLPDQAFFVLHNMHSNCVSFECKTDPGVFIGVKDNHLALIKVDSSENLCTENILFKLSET
Method: (§2) SA protein was diluted to 2 μg/mL to coat ELISA plate at 100 μL/well overnight at 4° C. The plate was washed with PBST (PBS containing 0.05% Tween20) for 3 times, and blocked with 2% BSA prepared in PBS at 200 μL/well, at room temperature for 2 h. After the plate was washed twice with PBST, IL-33-his-biotin protein was diluted to 1 μg/mL with 1% BSA prepared in PBST, and was added to ELISA plate at 100 μL/well. The plate was incubated at room temperature for 1 h, and each monoclonal antibody was diluted with 1% BSA prepared in PBST in a 3-fold gradient. The highest concentration of antibody was 10 μg/mL, and the antibody was diluted for 12 gradients. Each diluted monoclonal antibody was added to ELISA wells with 100 μL/well, and the plate was incubated at room temperature for 1 h. Each sample was added to duplicate wells in parallel. The plate was washed with PBST for 3 times, and HRP-anti human IgG Fc secondary antibody prepared with PBST was diluted at an appropriate ratio, and was added to ELISA wells at 100 μL/well. […] Each reaction solution was shaken uniformly and OD450 nm was read on a microplate reader. The data was analyzed and EC₅₀ was calculated.
(§3) Subsequently, according to the experimental method of Example 9, the affinity of the above mutant proteins to 874F7-Hu1 was determined, and IL-33 proteins (WT-1, WT-2, WT-3, and WT-4) without any mutation were set as controls.

[2] = target: T15, IL-33 mutant protein K48A (human, UniProt O95760 112-270); assay: ELISA as Example 9; row K48A
T15 construct: Prokaryotic expression
T15 chain: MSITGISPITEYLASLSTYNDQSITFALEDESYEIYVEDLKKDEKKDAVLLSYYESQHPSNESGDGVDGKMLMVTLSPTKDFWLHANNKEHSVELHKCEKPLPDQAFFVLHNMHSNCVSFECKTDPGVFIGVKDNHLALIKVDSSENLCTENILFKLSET
Method: as §2, §3

B1: 874F7 (antibody, V domains shown)
VH: QVQLKESGPGLVAPSHSLSITCNVSGFSLSKYGVHWIRQIPGRGLDWLGVLRAGGSTGYNSALMSRLSISKDSSKSQVFLKMNDLRTDDTAVYFCVRDHYYYSSYGGFVYWGQGTLVTVSA
VL: DIQMTQSPASQSASLGESVTITCLASQTIGAWLAWYRQQPGKSPQLLIYAATRLADGVPSRFSGSGSGTEFSFKINNLQAEDFVSYYCQQLDSSPYTFGGGTRLEM
notes: Murine hybridoma antibody purified on Protein G; also called murine antibody 874F7
OD450 (Pep13): 0.053 OD450
OD450 (Pep4): 0.048 OD450
OD450 (Pep6): 1.03 OD450
OD450 (Pep16): 0.049 OD450
OD450 (Pep2): 0.05 OD450
OD450 (Pep3): 0.048 OD450
OD450 (Pep5): 0.049 OD450
OD450 (Pep11): 0.053 OD450
OD450 (Pep10): 0.052 OD450
OD450 (Pep8): 0.047 OD450
OD450 (Pep15): 0.052 OD450
OD450 (Pep14): 0.053 OD450
OD450 (Pep7): 0.051 OD450

B2: 874F7-Hu1 (antibody, human IgG4 S228P, kappa)
heavy: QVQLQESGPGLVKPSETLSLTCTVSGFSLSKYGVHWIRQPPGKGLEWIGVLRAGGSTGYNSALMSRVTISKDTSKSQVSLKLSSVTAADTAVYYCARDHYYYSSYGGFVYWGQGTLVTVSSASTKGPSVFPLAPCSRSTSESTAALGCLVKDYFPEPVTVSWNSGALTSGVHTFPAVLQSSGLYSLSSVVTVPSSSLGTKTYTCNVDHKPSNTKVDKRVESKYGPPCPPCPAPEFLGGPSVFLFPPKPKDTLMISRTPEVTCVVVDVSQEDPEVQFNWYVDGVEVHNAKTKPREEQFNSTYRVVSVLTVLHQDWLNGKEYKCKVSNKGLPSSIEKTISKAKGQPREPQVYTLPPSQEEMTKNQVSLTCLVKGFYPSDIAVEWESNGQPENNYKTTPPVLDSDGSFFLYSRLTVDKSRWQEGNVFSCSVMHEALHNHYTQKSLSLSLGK
light: DIQMTQSPSSVSASVGDRVTITCLASQTIGAWLAWYQQKPGKSPKLLIYAATRLADGVPSRFSGSGSGTDFTLTISSLQPEDFATYYCQQLDSSPYTFGQGTKVEIKRTVAAPSVFIFPPSDEQLKSGTASVVCLLNNFYPREAKVQWKVDNALQSGNSQESVTEQDSKDSTYSLSSTLTLSKADYEKHKVYACEVTHQGLSSPVTKSFNRGEC
notes: also called 874F7-Hul; humanized antibody 874F7-Hu1
Affinity decline ratio [1]: 0.6 fold
EC50 [2]: 0.49 nM
